Measured values as given in the Human Domainome abundance scans (Beltran et al. 2025).
± gives the uncertainty stated by the source.

B1: Poly(rC)-binding protein 1, residues 278 to 350; numbered along this chain, Q15365 (parent)
chain: TQTTHELTIPNNLIGCIIGRQGANINEIRQMSGAQIKIANPVEGSSGRQVTITGSAASISLAQYLINARLSSE

Variants of: B1
Test: abundance fitness (aPCA) (normalised: wild type 0, dead -1); higher = more abundant; growth selection in yeast, the domain comes from the species named
Conditions: Homo sapiens

With Q2Y as the variant, how does the abundance fitness read?
The abundance fitness was 0.082 ± 0.087.

For Q2W, which abundance fitness is on record?
Its abundance fitness is 0.017 ± 0.04.

With Q2A as the variant, how does the abundance fitness read?
The abundance fitness was -0.177 ± 0.041.

For Q2E, which abundance fitness is on record?
Its abundance fitness is -0.077 ± 0.044.

For Q2C, which abundance fitness is on record?
Its abundance fitness is -0.263 ± 0.064.

With Q2K as the variant, how does the abundance fitness read?
Its abundance fitness is 0.101 ± 0.046.

Which abundance fitness does the source give for Q2V here?
The abundance fitness was 0.015 ± 0.043.

With Q2T as the variant, how does the abundance fitness read?
Its abundance fitness is 0.142 ± 0.051.

With Q2R as the variant, how does the abundance fitness read?
The abundance fitness was 0.054 ± 0.037.

With Q2M as the variant, how does the abundance fitness read?
The abundance fitness was 0.075 ± 0.054.

With Q2I as the variant, how does the abundance fitness read?
Its abundance fitness is 0.118 ± 0.093.

Which abundance fitness does the source give for Q2G here?
Its abundance fitness is 0.031 ± 0.035.

Which abundance fitness does the source give for Q2D here?
Its abundance fitness is 0.052 ± 0.073.

Which abundance fitness does the source give for Q2P here?
Its abundance fitness is -0.128 ± 0.079.

For T1W, which abundance fitness is on record?
The abundance fitness was -0.287 ± 0.083.

Which abundance fitness does the source give for T1Y here?
Its abundance fitness is -0.072 ± 0.16.

With T1A as the variant, how does the abundance fitness read?
Its abundance fitness is -0.086 ± 0.066.

Which abundance fitness does the source give for T1M here?
Its abundance fitness is 0.058 ± 0.088.

Which abundance fitness does the source give for T1Q here?
The abundance fitness was -0.559 ± 0.24.

With T1E as the variant, how does the abundance fitness read?
Its abundance fitness is 0.106 ± 0.085.

For T1G, which abundance fitness is on record?
The abundance fitness was -0.02 ± 0.048.

For T1P, which abundance fitness is on record?
Its abundance fitness is -0.141 ± 0.15.

With T1S as the variant, how does the abundance fitness read?
Its abundance fitness is 0.012 ± 0.061.

With T1D as the variant, how does the abundance fitness read?
Its abundance fitness is 0.167 ± 0.097.

With T1I as the variant, how does the abundance fitness read?
Its abundance fitness is 0.094 ± 0.084.

For T1C, which abundance fitness is on record?
The abundance fitness was -0.218 ± 0.12.

For T1N, which abundance fitness is on record?
Its abundance fitness is 0.194 ± 0.12.

With T1V as the variant, how does the abundance fitness read?
Its abundance fitness is 0.061 ± 0.058.

Which abundance fitness does the source give for T1K here?
Its abundance fitness is -0.191 ± 0.12.

Which abundance fitness does the source give for E6V here?
The abundance fitness was 0.135 ± 0.044.

With E6F as the variant, how does the abundance fitness read?
The abundance fitness was -0.088 ± 0.14.

Which abundance fitness does the source give for E6W here?
Its abundance fitness is -0.102 ± 0.051.

For E6Q, which abundance fitness is on record?
The abundance fitness was 0.156 ± 0.077.

For E6I, which abundance fitness is on record?
The abundance fitness was 0.116 ± 0.18.

With E6P as the variant, how does the abundance fitness read?
Its abundance fitness is -0.965 ± 0.37.

Which abundance fitness does the source give for E6M here?
Its abundance fitness is 0.07 ± 0.067.

Which abundance fitness does the source give for E6K here?
The abundance fitness was 0.113 ± 0.068.

For E6T, which abundance fitness is on record?
The abundance fitness was 0.294 ± 0.074.

With E6Y as the variant, how does the abundance fitness read?
Its abundance fitness is 0.218 ± 0.087.

Which abundance fitness does the source give for E6H here?
The abundance fitness was 0.232 ± 0.11.

For E6N, which abundance fitness is on record?
Its abundance fitness is 0.161 ± 0.08.

For E6A, which abundance fitness is on record?
The abundance fitness was 0.002 ± 0.043.

With E6C as the variant, how does the abundance fitness read?
Its abundance fitness is 0.168 ± 0.061.

With E6R as the variant, how does the abundance fitness read?
The abundance fitness was 0.164 ± 0.04.

For E6S, which abundance fitness is on record?
The abundance fitness was 0.08 ± 0.055.

With T3K as the variant, how does the abundance fitness read?
The abundance fitness was 0.257 ± 0.073.

With T3E as the variant, how does the abundance fitness read?
The abundance fitness was 0.285 ± 0.052.

Which abundance fitness does the source give for T3I here?
The abundance fitness was -0.345 ± 0.21.

Which abundance fitness does the source give for T3S here?
The abundance fitness was 0.119 ± 0.046.

Which abundance fitness does the source give for T3V here?
Its abundance fitness is 0.023 ± 0.045.

For T3R, which abundance fitness is on record?
The abundance fitness was 0.119 ± 0.035.

For T3D, which abundance fitness is on record?
The abundance fitness was 0.053 ± 0.091.

Which abundance fitness does the source give for T3Y here?
Its abundance fitness is -0.221 ± 0.17.

Which abundance fitness does the source give for T3C here?
The abundance fitness was -0.009 ± 0.09.

For T3L, which abundance fitness is on record?
The abundance fitness was 0.079 ± 0.047.

With T3P as the variant, how does the abundance fitness read?
The abundance fitness was -0.16 ± 0.078.

For T3G, which abundance fitness is on record?
The abundance fitness was 0.167 ± 0.033.

For T3A, which abundance fitness is on record?
The abundance fitness was 0.048 ± 0.05.

For T3M, which abundance fitness is on record?
The abundance fitness was 0.161 ± 0.068.

With T3H as the variant, how does the abundance fitness read?
Its abundance fitness is 0.147 ± 0.1.

For T3N, which abundance fitness is on record?
Its abundance fitness is 0.113 ± 0.095.

Which abundance fitness does the source give for T3Q here?
Its abundance fitness is 0.11 ± 0.051.

Which abundance fitness does the source give for L7A here?
The abundance fitness was -0.504 ± 0.073.

For L7D, which abundance fitness is on record?
The abundance fitness was -0.616 ± 0.15.

For L7C, which abundance fitness is on record?
The abundance fitness was -0.208 ± 0.081.

With H5E as the variant, how does the abundance fitness read?
The abundance fitness was -0.073 ± 0.061.

Which abundance fitness does the source give for H5T here?
The abundance fitness was 0.066 ± 0.085.

Which abundance fitness does the source give for H5V here?
Its abundance fitness is 0.217 ± 0.042.

With H5M as the variant, how does the abundance fitness read?
Its abundance fitness is 0.136 ± 0.057.

With H5N as the variant, how does the abundance fitness read?
Its abundance fitness is -0.173 ± 0.088.

Which abundance fitness does the source give for H5F here?
The abundance fitness was -0.32 ± 0.2.

With H5A as the variant, how does the abundance fitness read?
The abundance fitness was 0.139 ± 0.043.

For H5Q, which abundance fitness is on record?
The abundance fitness was 0.253 ± 0.059.

With H5K as the variant, how does the abundance fitness read?
Its abundance fitness is 0.107 ± 0.069.

Which abundance fitness does the source give for H5R here?
Its abundance fitness is 0.091 ± 0.041.

With H5C as the variant, how does the abundance fitness read?
Its abundance fitness is 0.104 ± 0.084.

With H5G as the variant, how does the abundance fitness read?
Its abundance fitness is -0.081 ± 0.038.

Which abundance fitness does the source give for H5W here?
Its abundance fitness is 0.091 ± 0.048.

Which abundance fitness does the source give for H5S here?
Its abundance fitness is 0.091 ± 0.056.

Which abundance fitness does the source give for H5Y here?
The abundance fitness was -0.083 ± 0.11.

With H5I as the variant, how does the abundance fitness read?
The abundance fitness was 0.113 ± 0.091.

Which abundance fitness does the source give for H5D here?
Its abundance fitness is -0.323 ± 0.073.

With H5P as the variant, how does the abundance fitness read?
Its abundance fitness is -0.699 ± 0.19.

For T4V, which abundance fitness is on record?
Its abundance fitness is -0.088 ± 0.046.

Which abundance fitness does the source give for T4Y here?
The abundance fitness was 0.013 ± 0.1.

With T4L as the variant, how does the abundance fitness read?
Its abundance fitness is -0.217 ± 0.055.

For T4D, which abundance fitness is on record?
The abundance fitness was -0.284 ± 0.084.

With T4A as the variant, how does the abundance fitness read?
Its abundance fitness is -0.109 ± 0.053.

For T4N, which abundance fitness is on record?
The abundance fitness was -0.138 ± 0.17.

With T4E as the variant, how does the abundance fitness read?
Its abundance fitness is -0.113 ± 0.066.

For T4F, which abundance fitness is on record?
Its abundance fitness is -0.182 ± 0.14.

With T4S as the variant, how does the abundance fitness read?
The abundance fitness was 0.008 ± 0.053.

Which abundance fitness does the source give for T4Q here?
Its abundance fitness is -0.087 ± 0.073.

With T4I as the variant, how does the abundance fitness read?
Its abundance fitness is -0.292 ± 0.15.

Which abundance fitness does the source give for T4P here?
Its abundance fitness is -0.271 ± 0.077.
